# Source: US20250320302A1
# Molecular target: Spike protein of SARS-CoV-2 (isolate USA-WA1/2020) (SARS-CoV-2) (UniProt P0DTC2)
# Assay: cell-based or functional assay
substance,measurement,value
S309 (antibody),"neutralization EC50 (viability of Vero E6 cells by CellTiter-Glo, 72 h after infection)",0.858 µg/mL
